pKd: −log10 of the molar value.
Target: T1, CCR7 (human) (UniProt P32248)
T1 sequence: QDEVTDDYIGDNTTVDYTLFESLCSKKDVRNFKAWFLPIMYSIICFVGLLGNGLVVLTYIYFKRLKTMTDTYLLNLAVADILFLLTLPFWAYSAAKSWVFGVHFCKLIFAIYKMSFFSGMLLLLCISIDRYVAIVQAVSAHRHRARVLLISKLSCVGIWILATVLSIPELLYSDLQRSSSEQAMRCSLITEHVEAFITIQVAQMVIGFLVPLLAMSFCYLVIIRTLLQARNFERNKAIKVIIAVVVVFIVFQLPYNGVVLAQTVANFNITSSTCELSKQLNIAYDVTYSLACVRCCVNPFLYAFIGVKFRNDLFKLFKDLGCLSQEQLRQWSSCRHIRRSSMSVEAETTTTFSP
Test: flow cytometry, live cells
Conditions: H9 cells (CCR7 positive), Cy3-RNA; 2'-F C and 2'-F U (all pyrimidines); Flow cytometry: 2.5e5 cells in 100 uL binding buffer, 30 min, room temperature; refolding/washing buffer DPBS pH 7.0-7.4, 1 mM CaCl2, 1 mM MgCl2, 2.7 mM KCl …

Row | Sequence | pKd
1 | GGGAGGACGAUGCGGAAUUCGUCAAAGUCGUUUAUUUCGUCUGUGCAGACGACUCGCCCGA [C-2A] | 7.19
2 | GGGAGGACGAUGCGGUGCCGCACAUUAGUCUCUGGUUGCCCACGCCAGACGACUCGCCCGA [DD9-9] | 6.95
